Experimental data published in patent US20200010567A1 (NEURIMMUNE, published 2020).

T1: GA10: H-(GA)10HHHHHH-NH2 (C-terminal amide)
T1 peptide: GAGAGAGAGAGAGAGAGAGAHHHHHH

T2: GA20: H-(GA)20HHHHHH-NH2 (C-terminal amide)
T2 peptide: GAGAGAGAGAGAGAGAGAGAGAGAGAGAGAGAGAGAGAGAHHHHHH

T3: (GA)15: H-CHHHHHH(GA)15-OH
T3 construct: synthetic, not coupled to BSA; also called poly-GA DPR protein peptide
T3 peptide: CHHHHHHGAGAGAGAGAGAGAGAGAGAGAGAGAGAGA

T4: GP20: H-(GP)20HHHHHH-NH2 (C-terminal amide)
T4 peptide: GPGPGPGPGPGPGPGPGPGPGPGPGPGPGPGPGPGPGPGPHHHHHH


Assays:
GA10: H-(GA)10HHHHHH-NH2 = biological target: T1, GA10: H-(GA)10HHHHHH-NH2; assay: sandwich ELISA, peptide captured by anti-His antibody
From the text: (§1) In brief, His-tagged dipeptide repeat protein peptides were synthesized and purified by Schafer-N(Copenhagen, Denmark): GA₂₀: H-(GA)₂₀HHHHHH-NH₂; GA₁₀: H-(GA)₁₀HHHHHH-NH₂; GA₆: H-(GA)₆HHHHHH-NH₂; GA₅: H-(GA)₅HHHHHH-NH₂; GA₄: H-(GA)₄HHHHHH-NH₂; GA₃: H-(GA)₃HHHHHH-NH₂; GA₂: H-(GA)₂HHHHHH-NH₂; GP₂₀: H-(GP)₂₀HHHHHH-NH₂; GP₁₀: H-(GP)₁₀HHHHHH-NH₂; GP₆: H-(GP)₆HHHHHH-NH₂; GP₅: H-(GP)₅HHHHHH-NH₂; GP₄: H-(GP)₄HHHHHH-NH₂; GP₃: H-(GP)₃HHHHHH-NH₂; GP₂: H-(GP)₂HHHHHH-NH₂. 96-well microplates (Corning Incorporated, Corning, USA) were coated with monoclonal mouse anti-His tag antibody (Takara Bio Europe/Clontech, Saint-Germain-en-Laye, France) at a concentration of 10 μg/ml in coating buffer (15 mM Na₂CO₃, 35 mM NaHCO₃, pH 9.42) overnight at 4° C. Non-specific binding sites were blocked for 1 h at room temperature with PBS/0.1% Tween®-20 containing 2% BSA (Sigma-Aldrich, Buchs, Switzerland). After a washing step, His-tagged C9orf72 DPR protein peptides at equal concentration of either 1 μM or 5 μM in PBS (pH 7.4) were added for target-trapping by the anti-His tag antibody for 1 h at room temperature. […] Antibody binding to DPR protein peptides was detected by a donkey anti-human IgG Fcγ-specific antibody conjugated with HRP at 1:5000 dilution (Jackson ImmunoResearch Laboratories, Inc., West Grove, USA) for 1 h at RT. Binding was determined by measurement of HRP activity in a standard colorimetric assay. EC₅₀ values were estimated by non-linear regression using GraphPad Prism software (San Diego, USA).

GA20: H-(GA)20HHHHHH-NH2 = biological target: T2, GA20: H-(GA)20HHHHHH-NH2; assay: as above
From the text: as §1

[1] = biological target: T3, (GA)15: H-CHHHHHH(GA)15-OH; assay: indirect ELISA, coated uncoupled peptide
Description: In brief, dipeptide repeat proteins were synthesized and purified by Schafer-N(Copenhagen, Denmark): (GA)₁₅: H-CHHHHHH(GA)₁₅-OH; (GP)₁₅: H-C(GP)₁₅-OH; (GR)₁₅: H-C(GR)₁₅-OH; (PA)₁₅: H-C(PA)₁₅-OH; (PR)₁₅: H—C(PR)₁₅-OH. 96-well microplates (Corning Incorporated, Corning, USA) were coated with dipeptide repeat protein peptides at a concentration of either 5 μg/ml or 20 μg/ml in coating buffer (15 mM Na₂CO₃, 35 mM NaHCO₃, pH 9.42). Non-specific binding sites were blocked for 1 h at room temperature with PBS/0.1% Tween®-20 containing 2% BSA (Sigma-Aldrich, Buchs, Switzerland). Primary antibodies were diluted to the indicated concentrations and incubated for 1 h at room temperature, followed by incubation with a donkey anti-human IgG Fcγ-specific antibody conjugated with HRP (Jackson ImmunoResearch Laboratories, Inc., West Grove, USA). Binding was determined by measurement of HRP activity in a standard colorimetric assay. EC₅₀ values were estimated by non-linear regression using GraphPad Prism software (San Diego, USA). The binding specificity and EC₅₀ of human-derived antibodies for C9orf72 dipeptide repeat protein peptides (GA)₁₅, (GP)₁₅, (GR)₁₅, (PA)₁₅ and (PR)₁₅ were determined by indirect ELISA.

GP20: H-(GP)20HHHHHH-NH2 = biological target: T4, GP20: H-(GP)20HHHHHH-NH2; assay: indirect ELISA, coated His-tagged peptide
From the text: In brief, dipeptide repeat proteins were synthesized and purified by Schafer-N (Copenhagen, Denmark): GA₂₀: H-(GA)₂₀HHHHHH-NH₂; GA₁₀: H-(GA)₁₀HHHHHH-NH₂; GA₆: H-(GA)₆HHHHHH-NH₂; GA₅: H-(GA)₅HHHHHH-NH₂; GA₄: H-(GA)₄HHHHHH-NH₂; GA₃: H-(GA)₃HHHHHH-NH₂; GA₂: H-(GA)₂HHHHHH-NH₂; GP₂₀: H-(GP)₂₀HHHHHH-NH₂; GP₁₀: H-(GP)₁₀HHHHHH-NH₂; GP₆: H-(GP)₆HHHHHH-NH₂; GP₅: H-(GP)₅HHHHHH-NH₂; GP₄: H-(GP)₄HHHHHH-NH₂; GP₃: H-(GP)₃HHHHHH-NH₂; GP₂: H-(GP)₂HHHHHH-NH₂. GR₂₀: H-(GR)₂₀HHHHHH-NH₂; GR₁₀: H-(GR)₁₀HHHHHH-NH₂; GR₆: H-(GR)₆HHHHHH-NH₂; GR₅: H-(GR)₅HHHHHH-NH₂; GR₄: H-(GR)₄HHHHHH-NH₂; GR₃: H-(GR)₃HHHHHH-NH₂; GR₂: H-(GR)₂HHHHHH-NH₂; PA₂₀: H-(PA)₂₀HHHHHH-NH₂; PA₁₀: H-(PA)₁₀HHHHHH-NH₂; PA₆: H-(PA)₆HHHHHH-NH₂; PA₅: H-(PA)₅HHHHHH-NH₂; PA₄: H-(PA)₄HHHHHH-NH₂; PA₃: H-(PA)₃HHHHHH-NH₂; PA₂: H-(PA)₂HHHHHH-NH₂; PR₂₀: H-(PR)₂₀HHHHHH-NH₂; PR₁₀: H-(PR)₁₀HHHHHH-NH₂; PR₆: H-(PR)₆HHHHHH-NH₂; PR₅: H-(PR)₅HHHHHH-NH₂; PR₄: H-(PR)₄HHHHHH-NH₂; PR₃: H-(PR)₃HHHHHH-NH₂; PR₂: H-(PR)₂HHHHHH-NH₂. 96-well microplates (Corning Incorporated, Corning, USA) were coated with dipeptide repeat protein peptides at a concentration of 50 μg/ml in coating buffer (15 mM Na₂CO₃, 35 mM NaHCO₃, pH 9.42). Non-specific binding sites were blocked for 1 h at room temperature with PBS/0.1% Tween®-20 containing 2% BSA (Sigma-Aldrich, Buchs, Switzerland). Primary antibodies were diluted to the indicated concentrations and incubated 1 h at room temperature, followed by incubation with a donkey anti-human IgG Fcγ-specific antibody conjugated with HRP (Jackson ImmunoResearch Laboratories, Inc., West Grove, USA). Binding was determined by measurement of HRP activity in a standard colorimetric assay. EC₅₀ values were estimated by non-linear regression using GraphPad Prism software (San Diego, USA).

Row | Binder | EC50 (GA10: H-(GA)10HHHHHH-NH2) [nM] | EC50 (GA20: H-(GA)20HHHHHH-NH2) [nM] | EC50 [1] [nM] | EC50 (GP20: H-(GP)20HHHHHH-NH2) [nM]
1 | NI-308.15O7 (antibody, V domains shown) VH: QVQLVESGGGVVQPGRSLRLSCAASGFTFSNHAMHWVRQAPGKGLEWVAVISYDGENTYYADSIEGRFTISRDNFKNTLFLQMYSLTADDTAMYFCARGGRRGHFTSYYLDYWGQGTLVTVSS VL: CDIQMTQSPSSLSASVGDRVTITCRASQNIDKYLNWYQQIPGKAPKLLIYAASSLHSGVPSRFSGSGSGTDFSLTISSLQPEDFAIYYCQQSYSSFRTFGQGTKLEIK | > 400 | 9 | 0.48 | –
2 | NI-308.46E9 (antibody, V domains shown, Recombinant complete human IgG1, kappa) VH: QVQLQESGPGLVKPSETLSLTCTVSGASISGSTYYWGWIRQPPGKGLEYIGRIYYSGSTYYNPSLKSRATISVDTSKNQLSLTLSSVTAADTAVYYCVRPFYAGSGNSPFDYWGQGTLVTVSS VL: CEIVLTQSPATVSVSPGERATLSCRASQSVSTNLAWYQQKPGQPPRLLIYGASTRATGIPARFSGSGSGAEFTLTISSLQSEDFVVYYCQQYNNWPPAFGGGTKVEIK | – | – | – | 15.5
3 | NI-308.28G1 (antibody, V domains shown, Recombinant complete human IgG1, kappa) VH: QVQLQESGPRLVKPSETLSLTCTVAGGSVNSYYWTWIQQSPGKGLEWLGRIYIAGRTNYNPSLTSRIALSVDTSRNQLSLKLTSVTAADTAIYYCARWGAESGDYYYGVDVWGPGTLVTVSS VL: EIVMTQSPLSLPVTPGEPASISCKSSEGLLHSNGYTYLDWYLQKPGQAPQLLIFLASNRAAGVPDRFSGSGSGTDFTLKISRVEAEDVGVYYCMQAIQSPWTFGPGTKVEIK | 0.46 | 0.4 | 1.1 | –
4 | NI-308.18F7 (antibody, V domains shown, Recombinant complete human IgG1, kappa) VH: QVQLQESGPGLVKPSETLSVTCTVSGGSINDYYWNWIRQPAGKGLEWIGRIYASGTINYNPSLQSRVTMSIDTSKNQFSLDLISVSAADTAVYYCARWGQVVGDYYYGMDVWGQGTTVTVSS VL: EIVLTQSPLSLSVTPGEPASISCKSSQSLQHTNGYNYLDWYLLKPGQSPQLLIFLTSNRASGVPDRFSGSGSGTNFTLKISRVEAEDVGVYYCMEGIQLWTFGQGTKLEIK | 0.34 | 0.45 | 1.5 | –
5 | NI-308.6B11 (antibody, V domains shown, Recombinant complete human IgG1, kappa) VH: EVQLVQSGAEVKRPGASVKVSCKVSGYTLTELSMHWVRQAPGKGLEWMGGFDPEDGETVYAQKFQGRVTMTEDTSTDTAYMELSSLRSEDTALYHCATYGSSWHWNEGNEGSYYFDYWGQGTLVTVSS VL: CDIQMTQSPSSLSASVGDRVTITCQASQDISIYLNWYQQKPGKAPKLLIYDASNLETGVPSRFSGSGSGTDFTFTISGLQPEDVARYYCQQYDDLPITFGQGTRLEIK | – | – | ~38.4 | –
6 | NI-308.5G2 (antibody, V domains shown, Recombinant complete human IgG1, kappa) VH: EVQLVQSGADLRNPGASVTVSCTASGYHFADNAINWLRQAPGQRLEWMGWINIYSGNTKYSQNFQGRVTFTRNTSASTAFMHLRSLRSEDTAVYFCARDPDSSGYYLPYFDYWGQGTLVTVSS VL: DIQLTQSPDSLTLSLGERATINCKSSQSVFYNSNNKNYLAWYQQKPGQPPKLLMYWASTRESGVTDRFSGSGSGTDFTLTITNLQAEDVAVYYCQQFYSSPLTFGGGTKVEIK | – | – | ~15.3 | 0.47
